# Patent publication CN117377689A (XENCOR INC, dated 2024)
# Biological target: T1, His-tagged human GPC3 antigen (human, UniProt P51654 25-559, limits assumed)
# T1 construct: His-tagged antigen captured on HIS1K Octet sensors; also called 人GPC3; human glypican-3
# Assay: Octet BLI; His-tagged GPC3 captured on HIS1K sensor, bsAb (1+1 Fab-scFv-Fc) as analyte
# T1 sequence (P51654 25-559 limits assumed): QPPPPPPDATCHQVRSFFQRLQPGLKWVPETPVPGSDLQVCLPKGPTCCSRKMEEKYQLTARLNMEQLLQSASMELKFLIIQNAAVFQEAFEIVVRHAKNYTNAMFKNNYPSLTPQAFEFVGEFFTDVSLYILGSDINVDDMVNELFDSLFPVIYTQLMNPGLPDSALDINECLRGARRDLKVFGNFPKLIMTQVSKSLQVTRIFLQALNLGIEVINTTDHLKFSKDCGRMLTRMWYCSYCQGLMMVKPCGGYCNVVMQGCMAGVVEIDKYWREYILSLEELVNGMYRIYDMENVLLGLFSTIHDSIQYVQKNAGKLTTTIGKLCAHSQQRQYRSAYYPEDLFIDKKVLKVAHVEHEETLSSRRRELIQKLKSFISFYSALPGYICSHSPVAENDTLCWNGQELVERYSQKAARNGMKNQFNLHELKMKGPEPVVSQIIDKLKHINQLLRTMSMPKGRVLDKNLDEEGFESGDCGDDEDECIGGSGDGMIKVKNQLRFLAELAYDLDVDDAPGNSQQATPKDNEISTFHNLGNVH
row,Kd [nM],Binder
1,100,"XENP35843 (GPC3-A H1.1_L1.16, 1+1 Fab-scFv-Fc bsAb with CD3 High-Int #1 scFv) (bispecific antibody) chain 1: QVQLVQSGAEVKKPGASVKVSCKASGYTFTDYEMHWVRQAPGQGLEWMGALEPKTGDTAYSQKFQGRVTMTADKSISTAYMELSRLRSDDTAVYYCTRFYSYTYWGQGTLVTVSSASTKGPSVFPLAPSSKSTSGGTAALGCLVKDYFPEPVTVSWNSGALTSGVHTFPAVLQSSGLYSLSSVVTVPSSSLGTQTYICNVNHKPSDTKVDKKVEPKSCDKTHTCPPCPAPPVAGPSVFLFPPKPKDTLMISRTPEVTCVVVDVKHEDPEVKFNWYVDGVEVHNAKTKPREEEYNSTYRVVSVLTVLHQDWLNGKEYKCKVSNKALPAPIEKTISKAKGQPREPQVYTLPPSREEMTKNQVSLTCDVSGFYPSDIAVEWESDGQPENNYKTTPPVLDSDGSFFLYSKLTVDKSRWEQGDVFSCSVMHEALHNHYTQKSLSLSPGK chain 2: not shown chain 3: DVVMTQSPLSLPVTLGQPASISCRSSQSLVHSSGNTYLHWYQQRPGQSPRLLIYKVSNRFSGVPDRFSGSGSGTDFTLKISRVEAEDVGVYFCSQSTHVPPTFGSGTKLEIKRTVAAPSVFIFPPSDEQLKSGTASVVCLLNNFYPREAKVQWKVDNALQSGNSQESVTEQDSKDSTYSLSSTLTLSKADYEKHKVYACEVTHQGLSSPVTKSFNRGEC"
2,400,"XENP36140 (GPC3-A H1.1_L1.31, 1+1 Fab-scFv-Fc bsAb with CD3 High-Int #1 scFv) (bispecific antibody) chain 1: QVQLVQSGAEVKKPGASVKVSCKASGYTFTDYEMHWVRQAPGQGLEWMGALEPKTGDTAYSQKFQGRVTMTADKSISTAYMELSRLRSDDTAVYYCTRFYSYTYWGQGTLVTVSSASTKGPSVFPLAPSSKSTSGGTAALGCLVKDYFPEPVTVSWNSGALTSGVHTFPAVLQSSGLYSLSSVVTVPSSSLGTQTYICNVNHKPSDTKVDKKVEPKSCDKTHTCPPCPAPPVAGPSVFLFPPKPKDTLMISRTPEVTCVVVDVKHEDPEVKFNWYVDGVEVHNAKTKPREEEYNSTYRVVSVLTVLHQDWLNGKEYKCKVSNKALPAPIEKTISKAKGQPREPQVYTLPPSREEMTKNQVSLTCDVSGFYPSDIAVEWESDGQPENNYKTTPPVLDSDGSFFLYSKLTVDKSRWEQGDVFSCSVMHEALHNHYTQKSLSLSPGK chain 2: not shown chain 3: DVVMTQSPLSLPVTLGQPASISCRSSQSLVHSNGNTYLHWYQQRPGQSPRLLIYYVSNRFSGVPDRFSGSGSGTDFTLKISRVEAEDVGVYFCSQNTHVPPTFGSGTKLEIKRTVAAPSVFIFPPSDEQLKSGTASVVCLLNNFYPREAKVQWKVDNALQSGNSQESVTEQDSKDSTYSLSSTLTLSKADYEKHKVYACEVTHQGLSSPVTKSFNRGEC"
3,70,"XENP36941 (GPC3-A H1.1_L1.29, 1+1 Fab-scFv-Fc bsAb with CD3 High-Int #1 scFv) (bispecific antibody) chain 1: QVQLVQSGAEVKKPGASVKVSCKASGYTFTDYEMHWVRQAPGQGLEWMGALEPKTGDTAYSQKFQGRVTMTADKSISTAYMELSRLRSDDTAVYYCTRFYSYTYWGQGTLVTVSSASTKGPSVFPLAPSSKSTSGGTAALGCLVKDYFPEPVTVSWNSGALTSGVHTFPAVLQSSGLYSLSSVVTVPSSSLGTQTYICNVNHKPSDTKVDKKVEPKSCDKTHTCPPCPAPPVAGPSVFLFPPKPKDTLMISRTPEVTCVVVDVKHEDPEVKFNWYVDGVEVHNAKTKPREEEYNSTYRVVSVLTVLHQDWLNGKEYKCKVSNKALPAPIEKTISKAKGQPREPQVYTLPPSREEMTKNQVSLTCDVSGFYPSDIAVEWESDGQPENNYKTTPPVLDSDGSFFLYSKLTVDKSRWEQGDVFSCSVMHEALHNHYTQKSLSLSPGK chain 2: not shown chain 3: DVVMTQSPLSLPVTLGQPASISCRSSQSLVHSNGNTYLHWYQQRPGQSPRLLIYQVSNRFSGVPDRFSGSGSGTDFTLKISRVEAEDVGVYFCSQNTHVPPTFGSGTKLEIKRTVAAPSVFIFPPSDEQLKSGTASVVCLLNNFYPREAKVQWKVDNALQSGNSQESVTEQDSKDSTYSLSSTLTLSKADYEKHKVYACEVTHQGLSSPVTKSFNRGEC"
